# Laboratory results from patent US20100184658A1 (published 2010).
# T1: NEK2 (UniProt P51955 1-445, limits assumed)
# T1 sequence (looked up): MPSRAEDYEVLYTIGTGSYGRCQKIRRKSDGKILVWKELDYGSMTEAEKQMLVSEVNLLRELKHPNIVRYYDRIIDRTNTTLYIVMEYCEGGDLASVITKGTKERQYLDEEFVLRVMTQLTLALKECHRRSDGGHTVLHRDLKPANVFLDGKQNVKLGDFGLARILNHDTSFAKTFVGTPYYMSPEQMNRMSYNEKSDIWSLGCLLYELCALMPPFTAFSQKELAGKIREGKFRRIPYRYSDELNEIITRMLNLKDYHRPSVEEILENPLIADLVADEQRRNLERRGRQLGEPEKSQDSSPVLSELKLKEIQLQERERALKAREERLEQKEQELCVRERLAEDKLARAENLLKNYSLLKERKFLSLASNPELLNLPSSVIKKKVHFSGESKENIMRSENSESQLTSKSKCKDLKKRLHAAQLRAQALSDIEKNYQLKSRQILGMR
# T2: PRKD1 (PKC mu) (UniProt Q15139 1-912, limits assumed)
# T2 sequence (looked up): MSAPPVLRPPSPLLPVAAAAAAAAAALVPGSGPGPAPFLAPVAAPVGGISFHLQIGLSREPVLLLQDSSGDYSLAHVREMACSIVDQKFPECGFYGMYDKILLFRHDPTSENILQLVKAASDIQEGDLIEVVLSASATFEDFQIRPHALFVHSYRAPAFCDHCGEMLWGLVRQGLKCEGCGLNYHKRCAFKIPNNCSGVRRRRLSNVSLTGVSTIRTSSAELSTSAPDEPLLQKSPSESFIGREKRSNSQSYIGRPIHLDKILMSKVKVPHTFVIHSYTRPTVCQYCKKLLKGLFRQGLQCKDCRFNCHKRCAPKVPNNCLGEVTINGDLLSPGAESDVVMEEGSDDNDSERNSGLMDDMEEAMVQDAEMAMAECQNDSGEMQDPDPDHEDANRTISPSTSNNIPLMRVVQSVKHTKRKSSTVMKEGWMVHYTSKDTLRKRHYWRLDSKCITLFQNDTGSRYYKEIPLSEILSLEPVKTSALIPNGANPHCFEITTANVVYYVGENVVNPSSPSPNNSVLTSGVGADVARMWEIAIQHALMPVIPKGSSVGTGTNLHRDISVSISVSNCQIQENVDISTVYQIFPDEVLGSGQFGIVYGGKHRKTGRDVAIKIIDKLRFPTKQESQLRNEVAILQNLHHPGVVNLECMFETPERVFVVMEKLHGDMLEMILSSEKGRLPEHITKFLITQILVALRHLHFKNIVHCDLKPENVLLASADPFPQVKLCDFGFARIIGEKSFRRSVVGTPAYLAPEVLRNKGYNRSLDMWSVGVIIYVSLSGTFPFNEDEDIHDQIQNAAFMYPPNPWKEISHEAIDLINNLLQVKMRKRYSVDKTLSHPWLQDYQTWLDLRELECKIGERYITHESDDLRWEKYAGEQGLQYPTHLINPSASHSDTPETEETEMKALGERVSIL
# T3: MERTK (cMER) (UniProt Q12866 578-872, limits assumed)
# T3 sequence (looked up): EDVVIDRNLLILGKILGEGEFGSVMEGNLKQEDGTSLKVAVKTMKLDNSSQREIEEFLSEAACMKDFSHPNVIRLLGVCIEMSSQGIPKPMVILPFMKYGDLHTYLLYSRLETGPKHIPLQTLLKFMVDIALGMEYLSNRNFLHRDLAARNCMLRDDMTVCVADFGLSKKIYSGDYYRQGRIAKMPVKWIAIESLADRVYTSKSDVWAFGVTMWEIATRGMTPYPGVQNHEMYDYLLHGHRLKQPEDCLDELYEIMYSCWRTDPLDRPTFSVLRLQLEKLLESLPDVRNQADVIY
# T4: CHEK1 (CHK1) CHK1 checkpoint homolog (UniProt O14757 1-476, limits assumed)
# T4 sequence (looked up): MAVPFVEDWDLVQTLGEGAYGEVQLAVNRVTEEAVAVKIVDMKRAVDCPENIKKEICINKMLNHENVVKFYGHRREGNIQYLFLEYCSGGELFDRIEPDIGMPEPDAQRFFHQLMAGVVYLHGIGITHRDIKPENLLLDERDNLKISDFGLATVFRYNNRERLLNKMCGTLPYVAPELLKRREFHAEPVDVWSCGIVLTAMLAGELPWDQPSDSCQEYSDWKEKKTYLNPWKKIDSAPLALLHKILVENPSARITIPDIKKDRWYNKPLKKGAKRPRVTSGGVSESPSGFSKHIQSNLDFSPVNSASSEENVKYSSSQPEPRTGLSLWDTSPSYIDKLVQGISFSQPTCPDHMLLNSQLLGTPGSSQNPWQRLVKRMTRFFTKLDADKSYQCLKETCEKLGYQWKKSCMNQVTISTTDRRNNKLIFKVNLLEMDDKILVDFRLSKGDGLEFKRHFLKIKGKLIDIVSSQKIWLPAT
# How the values were obtained:
# Test in all cases: cell-based or functional assay
# [1] = target: MAP3K9 (MLK1) Mitogen-activated protein kinase kinase kinase 9 (UniProt P80192 132-413, limits assumed)
# [2] = target: NEK6 NIMA (never in mitosis gene a)-related kinase 6 (UniProt Q9HC98 1-313, limits assumed)
# NEK2 = target: T1, NEK2
# RPS6KA5 (MSK1) = RPS6KA5 (MSK1) (UniProt O75582 1-802, limits assumed)
# CAMK2A (CaMKII alpha) = CAMK2A (CaMKII alpha) (UniProt Q9UQM7 1-478, limits assumed)
# PRKD1 (PKC mu) = target: T2, PRKD1 (PKC mu)
# MERTK (cMER) = target: T3, MERTK (cMER)
# [3] = target: T4, CHEK1 (CHK1) CHK1 checkpoint homolog
# CLK2 = CLK2 (UniProt P49760 1-499, limits assumed)
# CLK2, sequence (P49760 whole entry): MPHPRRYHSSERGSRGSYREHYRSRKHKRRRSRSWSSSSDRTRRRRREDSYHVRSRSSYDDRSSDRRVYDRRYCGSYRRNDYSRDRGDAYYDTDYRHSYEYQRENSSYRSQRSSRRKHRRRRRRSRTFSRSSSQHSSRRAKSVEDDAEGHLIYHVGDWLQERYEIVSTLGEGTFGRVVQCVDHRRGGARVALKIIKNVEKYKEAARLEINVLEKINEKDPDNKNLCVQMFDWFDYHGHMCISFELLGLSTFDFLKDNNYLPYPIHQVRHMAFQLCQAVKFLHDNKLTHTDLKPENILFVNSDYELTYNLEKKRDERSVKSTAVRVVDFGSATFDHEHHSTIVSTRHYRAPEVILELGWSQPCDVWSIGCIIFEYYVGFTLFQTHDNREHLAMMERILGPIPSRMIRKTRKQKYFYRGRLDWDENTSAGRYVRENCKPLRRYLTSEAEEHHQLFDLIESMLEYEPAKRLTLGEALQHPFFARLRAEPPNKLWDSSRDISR
# CAMK2A (CaMKII alpha), sequence (Q9UQM7 whole entry): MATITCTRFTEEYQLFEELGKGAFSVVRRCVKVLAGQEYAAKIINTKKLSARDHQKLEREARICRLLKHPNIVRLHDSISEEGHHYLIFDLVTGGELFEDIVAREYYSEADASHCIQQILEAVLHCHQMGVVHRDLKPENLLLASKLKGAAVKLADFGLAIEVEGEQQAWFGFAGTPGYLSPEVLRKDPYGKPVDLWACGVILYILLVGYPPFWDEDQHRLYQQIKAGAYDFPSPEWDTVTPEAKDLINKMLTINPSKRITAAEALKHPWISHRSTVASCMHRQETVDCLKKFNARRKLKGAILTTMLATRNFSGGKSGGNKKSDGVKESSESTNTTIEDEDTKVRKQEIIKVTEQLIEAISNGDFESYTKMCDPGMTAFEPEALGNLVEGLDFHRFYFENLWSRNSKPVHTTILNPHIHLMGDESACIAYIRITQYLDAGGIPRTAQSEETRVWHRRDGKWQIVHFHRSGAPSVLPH
# MAP3K9 (MLK1) Mitogen-activated protein kinase kinase kinase 9, sequence (P80192 132-413 limits assumed): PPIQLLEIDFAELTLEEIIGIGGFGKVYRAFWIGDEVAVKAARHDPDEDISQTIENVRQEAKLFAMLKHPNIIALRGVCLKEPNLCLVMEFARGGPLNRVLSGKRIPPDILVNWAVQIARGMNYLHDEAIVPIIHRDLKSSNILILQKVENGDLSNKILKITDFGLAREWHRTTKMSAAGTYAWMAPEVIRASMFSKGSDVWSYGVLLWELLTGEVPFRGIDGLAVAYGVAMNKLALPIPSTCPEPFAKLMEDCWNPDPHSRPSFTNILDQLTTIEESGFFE
# NEK6 NIMA (never in mitosis gene a)-related kinase 6, sequence (Q9HC98 whole entry): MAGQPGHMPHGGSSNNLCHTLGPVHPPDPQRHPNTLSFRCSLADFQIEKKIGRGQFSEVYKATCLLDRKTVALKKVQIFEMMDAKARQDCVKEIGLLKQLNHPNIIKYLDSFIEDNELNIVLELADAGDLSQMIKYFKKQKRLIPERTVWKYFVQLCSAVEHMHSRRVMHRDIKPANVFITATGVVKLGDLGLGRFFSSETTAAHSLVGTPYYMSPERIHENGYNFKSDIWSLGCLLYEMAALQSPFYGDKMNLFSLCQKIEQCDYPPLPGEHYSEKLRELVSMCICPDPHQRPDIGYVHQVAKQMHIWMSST
# RPS6KA5 (MSK1), sequence (O75582 whole entry): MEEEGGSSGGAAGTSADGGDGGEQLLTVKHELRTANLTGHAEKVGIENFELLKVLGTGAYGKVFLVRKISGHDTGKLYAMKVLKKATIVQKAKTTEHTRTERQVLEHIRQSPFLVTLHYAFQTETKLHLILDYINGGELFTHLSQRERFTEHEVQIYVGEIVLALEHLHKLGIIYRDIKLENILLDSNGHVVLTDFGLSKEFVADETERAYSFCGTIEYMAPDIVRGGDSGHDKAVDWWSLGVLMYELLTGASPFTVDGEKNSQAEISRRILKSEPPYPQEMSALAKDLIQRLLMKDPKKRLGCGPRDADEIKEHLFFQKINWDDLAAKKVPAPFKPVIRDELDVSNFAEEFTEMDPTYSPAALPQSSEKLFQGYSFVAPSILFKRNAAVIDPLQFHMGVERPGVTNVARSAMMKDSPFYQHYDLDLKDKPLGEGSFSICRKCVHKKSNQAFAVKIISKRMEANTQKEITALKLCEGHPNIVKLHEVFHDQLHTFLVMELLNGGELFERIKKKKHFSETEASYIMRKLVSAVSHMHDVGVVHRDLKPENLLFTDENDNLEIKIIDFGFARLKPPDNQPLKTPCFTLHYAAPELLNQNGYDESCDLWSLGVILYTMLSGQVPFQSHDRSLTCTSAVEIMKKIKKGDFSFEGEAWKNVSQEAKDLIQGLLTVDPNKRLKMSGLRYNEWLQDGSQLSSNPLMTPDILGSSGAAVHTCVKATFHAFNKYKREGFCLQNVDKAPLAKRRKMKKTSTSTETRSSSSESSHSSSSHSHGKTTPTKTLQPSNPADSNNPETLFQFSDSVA
binder,measurement,setting,value
SGRPPMIVWFNRPFLIAVSHTHGQTILFMAKVINPVGA [D3 peptide],% Inhibition mean,[1],101%
same,% Inhibition mean,[2],97.4%
same,% Inhibition mean,NEK2,89.6%
same,% Inhibition mean,RPS6KA5 (MSK1),85%
same,% Inhibition mean,CAMK2A (CaMKII alpha),82.6%
same,% Inhibition mean,PRKD1 (PKC mu),80.6%
same,% Inhibition mean,MERTK (cMER),79.5%
same,% Inhibition mean,[3],74%
same,% Inhibition mean,CLK2,65.9%
